Like-named read-outs stand apart in the source and are kept apart here.

For assay [1], the target named is T1, full-length human CTLA4 expressed on cells (human, UniProt P16410 36-223).
T1 construct: whole, on cells; also called HEK293F/hCTLA-4 cells; HEK293F/hCTLA4 cells
T1 sequence (looked up): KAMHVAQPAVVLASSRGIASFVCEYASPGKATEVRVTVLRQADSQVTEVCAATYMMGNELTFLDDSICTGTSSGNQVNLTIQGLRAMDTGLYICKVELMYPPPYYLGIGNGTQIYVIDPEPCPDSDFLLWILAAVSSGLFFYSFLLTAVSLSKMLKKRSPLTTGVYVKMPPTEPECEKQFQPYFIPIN
Put plainly: flow cytometry, transfected HEK293F cells, antibody concentration not given. Here is the method:
The affinities of the antibodies were also assessed against human and mouse CTLA4 transiently expressed on the surface of HEK293F cells (FIG. 2). Briefly, HEK293F cells were transfected with a plasmid expressing full-length human, monkey or mouse CTLA4 from a bicistronic IRES vector also encoding EGFP, and EGFP expression was used to identify the transfected cells. After 48 hours, the mammalian cell suspension (2×10⁵/well) was transferred to an Eppendorf tube, centrifuged, the supernatant was discarded, the cells were resuspended with 1 mL PBSA (to a density is 4×10⁶ cells/mL), and added to a 96 well plate. […] The cells were then washed once prior to analysis by flow cytometry (Beckman® CytoFlex).
For orientation: Flow cytometry measures light scatter and fluorescence of single cells or particles in a stream.

Assay [2] has as its target T2, recombinant human CTLA4 fused with human Fc and His tag (human, UniProt P16410 36-162, limits assumed).
T2 construct: Coated in the CD80 ELISA, biotinylated and in solution in the CD86 ELISA; also called biotinylated human CTLA4 fused with human FC and His tag
T2 sequence (looked up): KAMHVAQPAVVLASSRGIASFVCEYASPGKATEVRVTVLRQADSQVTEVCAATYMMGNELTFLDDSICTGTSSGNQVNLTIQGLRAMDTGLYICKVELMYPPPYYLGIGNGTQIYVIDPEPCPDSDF
Nature of the assay: competition ELISA: plate-bound human CTLA4-Fc-His, biotinylated CD80 as blocked ligand. Here is the method: Antibodies were then tested for their ability to block binding of CTLA4 to its cognate ligands CD80 and CD86 by ELISA. […] Plates were blocked with PBS supplemented with 2% (w/v) skim milk at 37° C. for 1 hour. […] Plates were washed four times, and 100 μL HRP-neutravidin (1:1000) was added to each well and incubated at 37° C. for 1 hour. Plates were washed as previously described, and 50 μL TMB substrate solution was added and incubated at room temperature for 5 minutes before the reaction was stopped by 50 μL sulfate acid (2M).

The target in assay [3] is T1, full-length human CTLA4 expressed on …. Put plainly: flow cytometry blocking: HEK293F cells with human CTLA4, 100 nM antibody, then 100 nM CD80-Fc-Bio (blocked ligand); PBSA panel: Mean 157692, 26.3%. Here is the method: (§1) Antibodies were also tested for their ability to block binding of CTLA4 to its cognate ligands CD80 and CD86 by flow cytometry. The plasmid encoding full-length human CTLA4 was transiently expressed in HEK293F cells. Cells were washed with staining buffer (PBSA buffer including 1.76 mM KH₂PO₄, 10.14 mM Na₂HPO₄.12H₂O, 2.68 mM KCl, 136.89 mM NaCl and 1% BSA), and resuspended in staining buffer containing 100 nM test antibodies. […] Cells were washed once, and analyzed by CytoFlex flow cytometry.

For assay [4] the target is unchanged. Nature of the assay: flow cytometry blocking: HEK293F cells with human CTLA4, 100 nM antibody, then 100 nM CD86-Fc-Bio (blocked ligand); PBSA panel: Mean 10678, 12.2%. Here is the method:
as §1

The target in the next assay is T3, human CD80 (human, UniProt P33681 35-242, limits assumed).
T3 construct: constructs not described; also called biotinylated CD80; CD80-Fc-Bio
T3 sequence (looked up): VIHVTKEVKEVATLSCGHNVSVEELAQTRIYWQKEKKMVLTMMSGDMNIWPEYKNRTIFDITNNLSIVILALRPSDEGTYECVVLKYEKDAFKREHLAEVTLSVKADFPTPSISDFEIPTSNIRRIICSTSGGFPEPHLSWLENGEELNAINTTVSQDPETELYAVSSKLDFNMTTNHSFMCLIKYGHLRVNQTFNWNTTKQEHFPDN
Nature of the assay: yeast-display flow cytometry, Normalized FACS Bound.

The target in another assay is T4, mouse CD86 (mouse, UniProt P42082 24-244, limits assumed).
T4 sequence (looked up): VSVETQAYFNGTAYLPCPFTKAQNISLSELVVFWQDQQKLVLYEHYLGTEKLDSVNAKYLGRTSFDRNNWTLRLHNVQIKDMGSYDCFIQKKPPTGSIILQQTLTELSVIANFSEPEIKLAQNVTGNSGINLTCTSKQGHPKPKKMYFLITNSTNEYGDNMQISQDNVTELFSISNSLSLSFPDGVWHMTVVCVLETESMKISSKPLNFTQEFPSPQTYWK
The description is as above.

For another assay, the target named is T5, human CD86 (human, UniProt P42081 24-247, limits assumed).
T5 construct: constructs not described; also called recombinant human CD86 fused with human Fc; CD86-Fc-Bio
T5 sequence (looked up): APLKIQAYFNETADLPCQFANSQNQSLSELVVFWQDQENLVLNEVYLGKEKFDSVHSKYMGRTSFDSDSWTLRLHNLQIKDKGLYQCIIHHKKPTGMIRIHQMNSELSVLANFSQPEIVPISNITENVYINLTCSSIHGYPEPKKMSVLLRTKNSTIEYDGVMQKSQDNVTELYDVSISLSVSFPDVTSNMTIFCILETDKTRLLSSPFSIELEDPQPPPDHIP
Described as above.

In assay [5] the target is T6, recombinant human CTLA4-Fc (human, UniProt P16410 36-162).
T6 construct: also called human CTLA4 fused with human FC fragment; CTLA4-Fc (Sino Biological, 11159-H03H)
T6 sequence (looked up): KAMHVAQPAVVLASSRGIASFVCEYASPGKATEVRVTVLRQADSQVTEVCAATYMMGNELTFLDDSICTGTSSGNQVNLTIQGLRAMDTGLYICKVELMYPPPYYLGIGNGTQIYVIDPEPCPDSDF
Put plainly: ELISA on plate-coated recombinant human CTLA4-Fc, detection with HRP anti-human IgG (Fab specific). Here is the method: (§2) Plates were blocked with PBS supplemented with 3% non-fat milk at 37° C. for 1 hour. After washing, 100 μL of 3-fold serial dilutions of antibodies were added to each well. After incubation at 37° C. for 1 hour, plates were washed four times, and 100 μL HRP conjugated anti-human IgG (Fab specific) (1:6000 dilution) was added to each well. Plates were incubated at 37° C. for 1 hour, washed four times, and then 50 μL TMB substrate solution was added to each well, and the plate was incubated at room temperature. […] The EC₅₀ was evaluated by fitting the ELISA data using the asymmetrical sigmoidal (five-parameter logistic equation) model of GraphPad Prism 6 software.

For assay [6], the target named is T6, recombinant human CTLA4-Fc. Nature of the assay: ELISA, coated human CTLA4-Fc (as in Example 8). Here is the method:
as §2
A general note: ELISA stands for enzyme-linked immunosorbent assay.

The target of assay [7] is T6, recombinant human CTLA4-Fc. Put plainly: ELISA; EC50 divided by the EC50 of TY21580. Here is the method: as §2
In assay [8] the target is T6, recombinant human CTLA4-Fc. Put plainly: ELISA, coated human CTLA4-Fc (as in Example 8). Here is the method: as §2
This is another data set of the same source.

B1: TY21587 (antibody, V domains shown)
VH: EVQLVESGGGLVQPGGSLRLSCAASGFTFSDYGIHWVRQAPGKGLEWIGEIYHSGSTYYSPSLKSRVTISRDNSKNTLYLQLNSLRAEDTAVYYCARDVAPGSSGYYDGFDFWGQGTLVTVSS
VL: DIQLTQSPSSLSASVGDRVTITCRASQGIGSSLAWYQQKPGKAPKLLIYDASNRATGIPSRFSGSGSGTDFTLTISSLQPEDFATYYCQQYDQWPPWTFGQGTKVEIK
notes: human IgG1 (hIgG1) from Fab hit B15722
As for B1, the “% of cells in upper right quadrant (Q2)” value in assay [1] was found to be 23.6%. The “IC50 (read off the curve)” value in [2] is about 30 nM. Besides, in assay [3], the “% of cells in upper right quadrant (CD80-positive) in the presence of the antibody” value is 25.8% and the “Mean of the CD80 binding signal in the presence of the antibody” value came to 85700. Moreover, in assay [4], the “% of cells in upper right quadrant (CD86-positive) in the presence of the antibody” value is 6.59% and the “Mean of the CD86 binding signal in the presence of the antibody” value came to 5710.

B2: human CTLA4 mutant ADSQVT42TNDQMT displayed on yeast (receptor)
chain: KAMHVAQPAVVLASSRGIASFVCEYASPGKATEVRVTVLRQTNDQMTEVCAATYMMGNELTFLDDSICTGTSSGNQVNLTIQGLRAMDTGLYICKVELMYPPPYYLGIGNGTQIYVIDPE
notes: also called human CC' loop motif changed to the mouse motif
In the case of B2, the binding result in the assay with human CD80, in the assay with mouse CD86 and with human CD86 was “binds” in each case.

B3: human CTLA4 mutant LGI106AAA displayed on yeast (receptor)
chain: KAMHVAQPAVVLASSRGIASFVCEYASPGKATEVRVTVLRQADSQVTEVCAATYMMGNELTFLDDSICTGTSSGNQVNLTIQGLRAMDTGLYICKVELMYPPPYYAAAGNGTQIYVIDPE
Consider B3, for which the binding result in the assay with human CD80, with mouse CD86 and with human CD86 was “binds” throughout.

B4: YLGIG105FVGMG (receptor, Homo sapiens, UniProt P16410 36-161, looked up)
CTLA4: KAMHVAQPAVVLASSRGIASFVCEYASPGKATEVRVTVLRQADSQVTEVCAATYMMGNELTFLDDSICTGTSSGNQVNLTIQGLRAMDTGLYICKVELMYPPPYFVGMGNGTQIYVIDPEPCPDSD
As to B4, the binding result in the assay with human CD80, with mouse CD86 and with human CD86 was “binds” throughout.

B5: TY22563 (antibody, IgG1, V domains shown)
VH: EVQLVESGGGLVQPGGSLRLSCAASGYSISSGYHWSWIRQAPGKGLEWLARIDWDDDKYYSTSLKSRLTISRDNSKNTLYLQLNSLRAEDTAVYYCARSYVYFDYWGQGTLVTVSS
VL: EVGSYYSAYPACDSHYPYCQSSGRSAGGGGSPLGLAGSGGSDIQLTQSPSSLSASVGDRVTITCRASQSVRGRFLAWYQQKPGKAPKLLIYDASNRATGIPSRFSGSGSGTDFTLTISSLQPEDFATYYCQQSSSWPPTFGQGTKVEIKR
notes: IgG1
In the case of B5, the EC50 (read off the curve) (usually the concentration that produces a half-maximal response) in assay [5] was about 60 nM.

B6: TY22864 (antibody, V domains shown)
VH: EVQLVESGGGLVQPGGSLRLSCAASGYSISSGYHWSWIRQAPGKGLEWLARIDWDDDKYYSTSLKSRLTISRDNSKNTLYLQLNSLRAEDTAVYYCARSYVYFDYWGQGTLVTVSS
VL: DIQLTQSPSSLSASVGDRVTITCRASQSVRGRFLAWYQQKPGKAPKLLIYDASNRATGIPSRFSGSGSGTDFTLTISSLQPEDFATYYCQQSSSWPPTFGQGTKVEIKR
As for B6, the EC50 (commonly the concentration at which the effect is half-maximal) in assay [6] came to 117 nM.

B7: TY22566 (antibody, IgG1, V domains shown)
VH: EVQLVESGGGLVQPGGSLRLSCAASGYSISSGYHWSWIRQAPGKGLEWLARIDWDDDKYYSTSLKSRLTISRDNSKNTLYLQLNSLRAEDTAVYYCARSYVYFDYWGQGTLVTVSS
VL: EVGSYPNPASDCVPYYYACAYSGRSAGGGGSPLGLAGSGGSDIQLTQSPSSLSASVGDRVTITCRASQSVRGRFLAWYQQKPGKAPKLLIYDASNRATGIPSRFSGSGSGTDFTLTISSLQPEDFATYYCQQSSSWPPTFGQGTKVEIKR
notes: IgG1
For B7, the “EC50 (read off the curve)” value in assay [5] is about 200 nM.

B8: TY22871 (antibody, V domains shown)
VH: EVQLVESGGGLVQPGGSLRLSCAASGYSISSGYHWSWIRQAPGKGLEWLARIDWDDDKYYSTSLKSRLTISRDNSKNTLYLQLNSLRAEDTAVYYCARSYVYFDYWGQGTLVTVSS
VL: DIQLTQSPSSLSASVGDRVTITCRASQSVRGRFLAWYQQKPGKAPKLLIYDASNRATGIPSRFSGSGSGTDFTLTISSLQPEDFATYYCQQSSSWPPTFGQGTKVEIKR
On to B8, for which the EC50 in [6] turned out to be 88.1 nM.

B9: TY22776 (antibody, V domains shown)
VH: EVQLVESGGGLVQPGGSLRLSCAASGYSISSGYHWSWIRQAPGKGLEWLARIDWDDDKYYSTSLKSRLTISRDNSKNTLYLQLNSLRAEDTAVYYCARSYVYFDYWGQGTLVTVSS
VL: EVGSSDCVPYYYACAYSGRSAGGGGTPLGLAGSGGSDIQLTQSPSSLSASVGDRVTITCRASQSVRGRFLAWYQQKPGKAPKLLIYDASNRATGIPSRFSGSGSGTDFTLTISSLQPEDFATYYCQQSSSWPPTFGQGTKVEIKR
For B9, in [7], the masking efficiency turned out to be 296. In addition, the EC50 in assay [8] was found to be 65.9 nM.

(Values after patent US20190241662A1 (ADAGENE, published 2019).)
